Article PMC3406662 (The Journal of Biological Chemistry, 2012)

Molecular target: the molecule itself
Test: AUC

B1: His6-Dma1(187–end) (domain or fragment, S. pombe, UniProt Q10322 187-267, looked up)
chain: SGPPECCICLMPVLPCQALFVAPCSHSYHYKCIRPTLNESHPYFSCFICRKYHDLEAPVEEGDESLNDLLRNATVKDDASE
  stoichiometry N: 2
